Measured values as given in patent US20110130449A1 (ISIS INNOVATION, published 2011).

Tests used:
[1] = target: TAP-tagged Jmjd6 fusion protein (human); assay: tandem affinity purification of TAP-tagged Jmjd6 from HEK293T cells, MS identification
[2] = target: Jmjd6 with an N-terminal deletion of seven amino acids (GFP fusion) (human, UniProt Q5R6G2 8-403); assay: GFP nanotrap pulldown, Western blot
[3] = target: Jmjd6 active site mutant ASM1 (GFP fusion) (human, UniProt Q5R6G2 1-403); assay: GFP nanotrap pulldown, Western blot

| binding result [1] | binding result [2] | binding result [3] | Binder |
| --- | --- | --- | --- |
| binds | no binding | no binding | Splicing factor U2AF 65 kD subunit (other, also called U2 snRNP auxiliary factor 65 KDa subunit) SDFDEFERQLNENKQERDKENRHRKRSHSRSRSRDRKRRSRSRDRRNRDQRSASRDRRRRSKPLTRGAKEEHGGLIRSPRHEKKKKVRKYWDVPPPGFEHITPMQYKAMQAAGQIPATALLPTMTPDGLAVTPTPVPVVGSQMTRQARRLYVGNIPFGITEEAMMDFFNAQMRLGGLTQAPGNPVLAVQINQDKNFAFLEFRSVDETTQAMAFDGIIFQGQSLKIRRPHDYQPLPGMSENPSVYVPGVVSTVVPDSAHKLFIGGLPNYLNDDQVKELLTSFGPLKAFNLVKDSATGLSKGYAFCEYVDINVTDQAIAGLNGMQLGDKKLLVQRASVGAKNATLVSPPSTINQTPVTLQVPGLMSSQVQMGGHPTEVLCLMNMVLPEELLDDEEYEEIVEDVRDECSKYGLVKSIEIPRPVDGVEVPGCGKIFVEFTSVFDCQKAMQGLTGRKFANRVVVTKYCDPDSYHRRDFW |
| binds | – | – | cisplatin resistance-associated overexpressed protein (CROP) (other, also called CROP protein) MISAAQLLDELMGRDRNLAPDEKRSNVRWDHESVCKYYLCGFCPAELFTNTRSDLGPCEKIHDENLRKQYEKSSRFMKVGYERDFLRYLQSLLAEVERRIRRGHARLALSQNQQSSGAAGPTGKNEEKIQVLTDKIDVLLQQIEELGSEGKVEEAQGMMKLVEQLKEERELLRSTTSTIESFAAQEKQMEVCEVCGAFLIVGDAQSRVDDHLMGKQHMGYAKIKATVEELKEKLRKRTEEPDRDERLKKEKQEREEREKEREREREERERKRRREEEEREKERARDRERRKRSRSRSRHSSRTSDRRCSRSRDHKRSRSRERRRSRSRDRRRSRSHDRSERKHRSRSRDRRRSKSRDRKSYKHRSKSRDREQDRKSKEKEKRGSDDKKSSVKSGSREKQSEDTNTESKESDTKNEVNGTSEDIKSEGDTQSN |
